Patent US20240287184A1 (GUANGDONG FAPON BIOPHARMA, published 2024)
Numbering of substitutions follows the chain as printed.

T1: human ICOS-hFc (human, UniProt Q9Y6W8 21-140)
T1 construct: Commercial protein; also called ICOS (ACRO); not shown: human Fc (hFc)
T1 sequence (looked up): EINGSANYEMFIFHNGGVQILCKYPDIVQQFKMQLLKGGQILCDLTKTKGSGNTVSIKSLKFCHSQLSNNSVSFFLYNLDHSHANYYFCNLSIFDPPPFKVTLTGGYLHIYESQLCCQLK

B1: anti-PD-1 humanized antibody c43 (antibody, V domains shown)
VH: QVQLVQSGAEVKKPGASVKVSCKASGYTFTTYYMYWVRQAPGQGLEWIGGINPSNGGTNYAEKFKGRVTLTVDTSTSTAYMELSSLRSEDTAVYYCTRRDSNYDGGFDYWGQGTTVTVSS
VL: DIQMTQSPSSLSASVGDRVTITCRASKSVSTSGYSYMHWYQQKPGKAPKLLIYLAYHLESGVPSRFSGSGSGTDFTLTISSLQPEDFATYYCQHSWELPITFGQGTKLEIKR
B2: anti-PD-1 humanized antibody c22 (antibody, V domains shown)
VH: B1 VH with I48M, Y60F, A61N, G66S, L70M, T74K
VL: B1 VL with M4L, V19A, L82V
B3: anti-PD-1 humanized antibody c53 (antibody, V domains shown)
VH: B1 VH with I48M, E62Q, K65Q, V68A, L70M
VL: B1 VL

biological target: T2, recombinant human PD-1 expressed on the surface of CHO cells (CHO-hPD1) (human, UniProt Q15116 25-288); test: flow cytometry on CHO-hPD1 cells
T2 construct: whole, on cells; also called CHO-PD1; hPD1-transfected CHO cells
Description: (§1) A CHO (Chinese Hamster Ovary Cells) cell line, CHO-hPD1, capable of expressing a recombinant human PD-1 on the cell surface, and a CHO cell line, CHO-cynoPD1, capable of expressing a monkey PD1 on the cell surface were prepared by recombinant technology. […] The specific method was: In order to evaluate the binding of the humanized antibody to the CHO-hPD1, 2×10⁵ CHO-hPD1 cells and the humanized antibody diluted in concentration gradient (with an initial concentration of 30 μg/mL, and diluted in 3-fold gradient) were added into a 96-well plate, and incubated at 4° C. for 30 minutes. The cells were washed once with a buffer (PBS containing 3% BSA) and then added with a PE-labeled anti-human IgG (Fc) Ab (Biolegend) fluorescent secondary antibody, incubated at 4° C. for 30 minutes, then washed once with the buffer and subsequently resuspended in PBS. Thereafter, the cell suspension was subjected to flow cytometric analysis by CytoFlex (Beckman flow cytometer), and the quantity of the antibody bound to the cells was measured according to the mean fluorescence intensity (MFI) of the staining. The same method was used for evaluating the binding of the humanized antibody to the CHO-cyno cells.

T2 sequence (Q15116 25-288): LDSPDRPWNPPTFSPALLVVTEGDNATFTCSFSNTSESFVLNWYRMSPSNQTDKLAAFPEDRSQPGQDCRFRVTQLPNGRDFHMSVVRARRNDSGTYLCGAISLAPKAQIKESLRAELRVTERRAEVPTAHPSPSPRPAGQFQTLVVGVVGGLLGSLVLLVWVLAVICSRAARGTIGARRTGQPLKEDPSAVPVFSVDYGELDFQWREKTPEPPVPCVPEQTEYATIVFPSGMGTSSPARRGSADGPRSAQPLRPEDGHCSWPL

EC50 [nM]	Binder
1.58	B1
1.68	B2
1.71	B3

biological target: T3, monkey PD1 expressed on the surface of CHO cells (CHO-cynoPD1) (monkey); test: flow cytometry on CHO-cynoPD1 cells
T3 construct: whole, on cells
Description: as §1

EC50 [nM]	Binder
0.894	B1
0.63	B2
0.743	B3

biological target: T4, PD1 naturally expressed by activated human lymphocytes (PHA-activated PBMC) (human, UniProt Q15116 25-288); test: flow cytometry on PHA-activated human PBMC
T4 construct: whole, on cells; Also used as the target for the mixed lymphocyte reaction (human T cells)
Description: After being obtained from fresh human peripheral blood by gradient centrifugation of lymphatic separation medium, the PBMCs were adjusted to the density of 1×10⁶ cells/mL and inoculated into T75, and meanwhile added with PHA-L (Sigma) at a final concentration of 1 μg/mL to stimulate the proliferation of lymphocytes. After being allowed to stand in an incubator at 37° C. and 5% CO₂ for 3 days, the cell suspension was taken out and centrifuged. The supernatant was discarded, and the precipitate was resuspended in a buffer (PBS containing 3% BSA) and added into a 96-well U-shaped plate at 2E5/well, then added with different concentration gradients of the humanized antibody, incubated at 4° C. for 30 minutes, and then centrifuged at 300 g for 5 minutes. The cells were washed once with the buffer, and added with a PE-labeled goat anti-human IgG fluorescent antibody (Biolegend), and incubated at 4° C. for 30 minutes. Then cells were centrifuged and washed once, resuspended in PBS, and subsequently analyzed by a CytoFlex flow cytometer to detect the quantity of the antibody bound to the PBMC.

T4 sequence (Q15116 25-288): as above

EC50 [nM]	Binder
0.281	B1
0.141	B2
0.213	B3

biological target: T2, recombinant human PD-1 expressed on the …; test: flow cytometry, blocking of PD-L1-mFc (0.2 µg/mL) binding to CHO-hPD1
Description: (§2) The ability of the anti-PD-1 humanized antibody to block the binding of the ligand to a transfected CHO cells which could stably express PD-1 on the surface was analyzed by a flow cytometer.
(§3) The CHO-PD1 cells were resuspended with a buffer (PBS containing 3% BSA), and adjusted to the density of 2×10⁶ cells/mL. The cell suspension was added into a 96-well U-shaped plate at 100 μL/well and centrifuged at 300 g for 5 minutes, and then the supernatant was discarded.
(§4) The cells were centrifuged at 300 g for 5 minutes, washed once with the buffer, added with a PE-labeled goat anti-mouse IgG fluorescent antibody (Biolegend), and incubated at 4° C. for 30 minutes. The cells were centrifuged and washed once, then resuspended in PBS, and subsequently analyzed by a CytoFlex flow cytometer to detect the quantity of the ligand protein bound to the cells, and calculate the IC₅₀ value of the PD-1 antibody in blocking the binding.

IC50 [nM]	Binder
3.14	B1
3.1	B2
3.02	B3

biological target: T2, recombinant human PD-1 expressed on the …; test: flow cytometry, blocking of PD-L2-mFc (0.2 µg/mL) binding to CHO-hPD1
Description: as §2, §3, §4

IC50 [nM]	Binder
7.95	B1
6.88	B2
7.05	B3

biological target: T5, PD-1-his (ACRO) recombinant protein (UniProt Q15116 25-167); test: BLI (ForteBio Octet), PD-1-his loaded on sensor, antibody in solution
T5 construct: Commercial protein; not shown: his tag
Description: Finally, analysis was conducted by utilizing a kinetic model, and data processing was conducted.

T5 sequence (Q15116 25-167 limits assumed): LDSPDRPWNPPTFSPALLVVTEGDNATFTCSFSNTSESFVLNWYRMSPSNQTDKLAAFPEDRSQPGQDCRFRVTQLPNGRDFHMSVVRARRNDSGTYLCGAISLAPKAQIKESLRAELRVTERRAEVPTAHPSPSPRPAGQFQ

Kd [nM]	koff [s⁻¹]	kon [M⁻¹ s⁻¹]	Binder
< 0.001	< 1e-07	984000	B1
< 0.001	< 1e-07	985000	B2
< 0.001	< 1e-07	979000	B3

biological target: T4, PD1 naturally expressed by activated …; test: cell-based or functional assay

IFNγ EC50 (mixed lymphocyte reaction) [nM]	IL2 EC50 (mixed lymphocyte reaction) [nM]	Binder
2.73	2.79	B1
0.727	13.3	B2
6.65	1.88	B3

biological target: T6, human CTLA4-hFc (human, UniProt P16410 37-162, limits assumed); test: ELISA, antigen coated at 1 µg/mL, antibody 10 µg/mL
T6 construct: Commercial protein; also called CTLA-4 (ACRO); not shown: human Fc (hFc)
From the text: (§5) A horse radish peroxidase (HRP)-coupled anti-human IgG (F) was used as the secondary antibody. After developed with TMB and terminated, it was read for an OD450 value with a microplate reader.

T6 sequence (P16410 37-162 limits assumed): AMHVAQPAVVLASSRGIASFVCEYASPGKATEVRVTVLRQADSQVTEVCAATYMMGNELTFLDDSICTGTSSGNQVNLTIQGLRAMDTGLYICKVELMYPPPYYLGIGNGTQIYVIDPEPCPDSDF

OD450 [OD450]	Binder
0.255	B1
0.209	B2
0.239	B3

biological target: T1, human ICOS-hFc; test: as above
From the text: as §5

OD450 [OD450]	Binder
0.131	B1
0.117	B2
0.133	B3

biological target: T7, human PD-1-hFc (human, UniProt Q15116 25-167); test: as above
T7 construct: Commercial protein; also called PD-1 (ACRO); not shown: human Fc (hFc)
From the text: as §5

T7 sequence (Q15116 25-167 limits assumed): as the sequence (Q15116 25-167 limits assumed) above

OD450 [OD450]	Binder
1.23	B1
1.33	B2
1.48	B3

biological target: T8, human CD28-hFc (human, UniProt P10747 19-152); test: as above
T8 construct: Commercial protein; also called CD28 (ACRO); not shown: human Fc (hFc)
From the text: as §5

OD450 [OD450]	Binder
0.189	B1
0.18	B2
0.176	B3

biological target: T6, human CTLA4-hFc; test: ELISA, antigen coated at 1 µg/mL
From the text: as §5

binding result	Binder
no binding (tested: 10 µg/mL)	B1
no binding (tested: 10 µg/mL)	B2
no binding (tested: 10 µg/mL)	B3

biological target: T1, human ICOS-hFc; test: ELISA, antigen coated at 1 µg/mL
From the text: as §5

binding result	Binder
no binding (tested: 10 µg/mL)	B1
no binding (tested: 10 µg/mL)	B2
no binding (tested: 10 µg/mL)	B3

biological target: T8, human CD28-hFc; test: ELISA, antigen coated at 1 µg/mL
From the text: as §5

binding result	Binder
no binding (tested: 10 µg/mL)	B1
no binding (tested: 10 µg/mL)	B2
no binding (tested: 10 µg/mL)	B3
